From paper PMC4707517
pIC50, pKd: −log10 of the molar value.

Columns and labels:
[1] = target: H1FL (H1 11-193 in Table 1, i.e. residues 1-193) S19C (mouse) (UniProt P10922); assay: fluorescence (de)quenching; conditions: 150 mM KCl (20 mM KCl for four-way junction and 4WJDNA), room temperature pre-incubation for competition, buffer and pH not given (HI-FI assay, ref 23)
[2] = target: H1 1-96 (delta97) S19C (mouse) (UniProt P10922); assay: FRET competition; conditions: 150 mM KCl (20 mM KCl for four-way junction and 4WJDNA); room temperature pre-incubation for competition; buffer and pH not given (HI-FI assay, ref 23)
[3] = target: H1 1-121 (delta72) S19C (mouse) (UniProt P10922); assay: FRET competition; conditions: 150 mM KCl (20 mM KCl for four-way junction and 4WJDNA); room temperature pre-incubation for competition; buffer and pH not given (HI-FI assay, ref 23)
[4] = target: H1FL (H1 11-193 in Table 1, i.e. residues 1-193) S19C (mouse) (UniProt P10922); assay: FRET competition; conditions: 150 mM KCl (20 mM KCl for four-way junction and 4WJDNA), room temperature pre-incubation for competition, buffer and pH not given (HI-FI assay, ref 23)
[5] = target: H1 1-96 (delta97) S19C (mouse) (UniProt P10922); assay: FRET; conditions: internal amino-C6-dT; 150 mM KCl (20 mM KCl for four-way junction and 4WJDNA); room temperature pre-incubation for competition; buffer and pH not given (HI-FI assay, ref 23)
[6] = target: H1 1-121 (delta72) S19C (mouse) (UniProt P10922); assay: FRET; conditions: internal amino-C6-dT; 150 mM KCl (20 mM KCl for four-way junction and 4WJDNA); room temperature pre-incubation for competition; buffer and pH not given (HI-FI assay, ref 23)
[7] = target: H1FL (H1 11-193 in Table 1, i.e. residues 1-193) S19C (mouse) (UniProt P10922); assay: FRET; conditions: internal amino-C6-dT; 150 mM KCl (20 mM KCl for four-way junction and 4WJDNA); room temperature pre-incubation for competition; buffer and pH not given (HI-FI assay, ref 23)
[8] = target: H1 1-121 (delta72) S19C (mouse) (UniProt P10922); assay: fluorescence (de)quenching; conditions: 150 mM KCl (20 mM KCl for four-way junction and 4WJDNA); room temperature pre-incubation for competition; buffer and pH not given (HI-FI assay, ref 23)
[9] = histone variant H2A.Z, mouse histones

4WJ15 four-way junction
pKd [1]: 10.46

4WJDNA linear 30 bp
pKd [1]: 8.43

AGGCCTGAGAATCCGGTGCCGAGGCCGCTCAATTGGTCGTAGACAGCTCTAGCACCGCTTAAACGCACGTACGCGCTGTCCCCCGCGTTTTAACCGCCAAGGGGATTACTCCCTAGTCTCCAGGCACGTGTCAGATATATACATCCAGGCCTTGTGTC (double strand) [A1/10 nucleosome]
pKd [2]: 6.85 | pKd [3]: 7.36

ATCCCTATACGCGGCCGCCCTGGAGAATCCCGGTGCCGAGGCCGCTCAATTGGTCGTAGACAGCTCTAGCACCGCTTAAACGCACGTACGCGCTGTCCCCCGCGTTTTAACCGCCAAGGGGATTACTCCCTAGTCTCCAGGCACGTGTCAGATATATACATCCGAT (double strand) [A18/1 nucleosome]
pKd [2]: 6.68 | pKd [3]: 8.09 | pKd [4]: 9.87

ATCTAATACTAGGACCCTATACGCGGCCGCATCGGAGAATCCCGGTGCCGAGGCCGCTCAATTGGTCGTAGACAGCTCTAGCACCGCTTAAACGCACGTACGCGCTGTCCCCCGCGTTTTAACCGCCAAGGGGATTACTCCCTAGTCTCCAGGCACGTGTCAGATATATACATCGATTGCATGTGGATCCGAATTCATATTAATGAT (double strand) [S30/30 nucleosome]
pKd [2]: 6.91 | pKd [3]: 8.73 | pKd [4]: 10.75 | pIC50 ([4]; competitor of S31/30 (10 nM), 1 nM H1): 8.43 | pKd [1]: 10.41

ATCTAATACTAGGACCCTATACGCGGCCGCATCGGAGAATCCCGGTGCCGAGGCCGCTCAATTGGTCGTAGACAGCTCTAGCACCGCTTAAACGCACGTACGCGCTGTCCCCCGCGTTTTAACCGCCAAGGGGATTACTCCCTAGTCTCCAGGCACGTGTCAGATATATACATCGATTGCATGTGGATCCGAATTCATATTAATGAT (double strand) [S30/30-H2A.Z nucleosome]
pKd [1, 9]: 10.29

CGAGCCAGGCCTGAGAATCCGGTGCCGAGGCCGCTCAATTGGTCGTAGACAGCTCTAGCACCGCTTAAACGCACGTACGCGCTGTCCCCCGCGTTTTAACCGCCAAGGGGATTACTCCCTAGTCTCCAGGCACGTGTCAGATATATACATCCAGGCCTTGTGTCG (double strand) [S7/11 nucleosome]
pKd [2]: 7.13 | pKd [3]: 8.49 | pKd [4]: 8.76

CGCATCGGAGAATCCCGGTGCCGAGGCCGCTCAATTGGTCGTAGACAGCTCTAGCACCGCTTAAACGCACGTACGCGCTGTCCCCCGCGTTTTAACCGCCAAGGGGATTACTCCCTAGTCTCCAGGCACGTGTCAGATATATACATCGATTGCATGTGGATCCGAATTCATATTAATGAT (double strand) [A3/30 nucleosome]
pKd [5]: 6.61 | pKd [6]: 7.98 | pKd [7]: 9.95

GATCTAATACTAGGACCCTATACGCGGCCGCATCGGAGAATCCCGGTGCCGAGGCCGCTCAATTGGTCGTAGACAGCTCTAGCACCGCTTAAACGCACGTACGCGCTGTCCCCCGCGTTTTAACCGCCAAGGGGATTACTCCCTAGTCTCCAGGCACGTGTCAGATATATACATCGATTGCATGTGGATCCGAATTCATATTAATGAT (double strand) [S31/30 nucleosome]
pKd [5]: 7.06 | pKd [6]: 9.01 | pKd [7]: 10.32

LE-Tri trinucleosome
pKd [8]: 10.33 | pKd ([1]; stoichiometry 3 H1 per trimer): 10.34

NLE-Tri trinucleosome
pKd [8]: 10.20 | pKd ([1]; stoichiometry 1 H1 per trimer): 10.38

NLE-Tri-H2A.Z trinucleosome
pKd [1, 9]: 10.64

TCGGGATACGCGGCCGCCCTGGAGAATCCCGGTGCCGAGGCCGCTCAATTGGTCGTAGACAGCTCTAGCACCGCTTAAACGCACGTACGCGCTGTCCCCCGCGTTTTAACCGCCAAGGGGATTACTCCCTAGTCTCCAGGCACGTGTCAGATATATACATCCTGTGCATGTATTGAC (double strand) [S17/13 nucleosome]
pKd [2]: 7.58 | pKd [3]: 9.02 | pKd [4]: 9.64
